Consider one molecule from patent publication US20160244499A1.

In this assay the target is C-terminally biotinylated γc ectodomain (human) (UniProt P31785). Nature of the assay: site 2 affinity of free super-4 for γc; method not stated.

B1: super-4 (IL-4 RGA), free, not bound to IL-4Rα (ligand)
chain: HKCDITLQEIIKTLNSLTEQKTLCTELTVTDIFAASKNTTEKETFCRAATVLRQFYSHHEKDTRCLGATAQQFHRHKQLIRFLKRLDRNLWGLAGLNSCPVKEANQSTLENFLERLRVIMQSKWFKCGAHHHHHH
In turn, B1 displayed a Kd of 300 nM.

Usually Kd stands for the constant that tells how readily two partners part at equilibrium.
